# Measurements: patent publication US7678386B2, “Liposomes coated with selected antibodies that bind to aminophospholipids” (Board of Regents the University of Texas, priority 2002, dated 2010)
# Several values for one entry are separate records, joined by “and”; a condition that tells them apart may be missing. Equal values may be shown once.
# Assay: Monoclonal single chain antibody ELISA on PS plate
# Format: binding
# Conditions: supernatants of individual subclones, 10% human serum
# Protocol: Individual HB2151 colonies from the plates (after 4 rounds of selection) were inoculated into 500 μl 2×TY containing 100 μg/ml ampicillin and 1% glucose in 96-well plates and grown with shaking (300 rpm.) overnight at 37° C. 5 μl from this plate were transferred to a second 96-well plate containing 500 μl 2×TY containing 100 μg/ml ampicillin per well and grown shaking at 37° C. for 3 hr (OD600=0.9).
# To each well was added 50 μl 2×TY containing 100 μg/ml ampicillin, 10 mM IPTG (final concentration is 1 mM), which was grown with shaking overnight at 30° C. It was centrifuged at 1,800 g for 10 min and 100 μl of the supernatant used in the following ELISA.
# 96 well plates (DYNEX IMMULON®1B) were coated with PS dissolved in ethanol at a concentration of 10 μg/ml (P6641 10 mg/ml solvent was Chloroform:MeOH 95:5). 10 μg/ml PC was coated in the same way. These plates were evaporated at 4° C. in the cold room. 250 μl 2.5% casein was added to each well, and the plates were covered and blocked at 37° C. for 1 hour.
# Wells were rinsed 3 times with PBS, 100 μl/well 10% human serum and 100 μl/well supernatant containing soluble scFv was added and incubated for 60 min at 37° C. The solution was discarded and washed 6 times with PBS. […] 100 μl 0.18 M H2SO4 was added to stop the reaction and read at O.D. 490.
molecule,measurement,value
3A2: scFv anti-PS clone; sequences SEQ ID NO:5 and SEQ ID NO:6 (protein) scFv: AQPAMAEVQLVESGGGVVQPGRSLRLSCAASGFTFSSYGMHWVRQAPGKGLEWVAVISYDGSNKYYADSVKGRFTISRDNSKNTLYLQMNSLRAEDTAVYYCARLHAQTWGQGTLVTVSSGGGGSGGGGSGGSALQSVLTQPPSVSAAPGQKVTISCSGSSSDMGNYAVSWYQQLPGTAPKLLIYENNKRPSGIPDRFSGSKSGTSATLGITGLWPEDEADYYCLAWDTSPRNVFGGGTKLTVLGAAAHHHHHHGAAEQKL,ELISA on PS Plate (O.D. 490),0.126 and 0.118 (2×) and 0.131 (2×) and 0.125 and 0.115 and 0.127 and 0.150 and 0.117 and 0.112 and 0.121 and 0.123 and 0.114 and 0.116 and 0.132
